Results reported in the Human Domainome abundance scans (Beltran et al. 2025).
± gives the uncertainty stated by the source.

B1: Homeobox protein SIX3, residues 212 to 262; numbered along this chain, O95343 (parent)
chain: CFKERTRSLLREWYLQDPYPNPSKKRELAQATGLTPTQVGNWFKNRRQRDR

Variants of: B1
Experiment: abundance fitness (aPCA) (normalised: wild type 0, dead -1); higher = more abundant; growth selection in yeast, the domain comes from the species named
Conditions: Homo sapiens

Abundance fitness of substitutions, site by site:
R26: K -0.01 ± 0.085, E -0.002 ± 0.058, F -0.228 ± 0.065, L 0.158 ± 0.064, M -0.14 ± 0.11, C -0.044 ± 0.052
T37: S -0.186 ± 0.068, F -0.678 ± 0.19, G -0.126 ± 0.047, D 0.326 ± 0.081, E 0.164 ± 0.065, L -0.255 ± 0.045, H -0.099 ± 0.074, R 0.014 ± 0.058
F43: A -0.96 ± 0.22, V -1 ± 0.092, W -0.915 ± 0.055, G -0.956 ± 0.11, Q -0.861 ± 0.089, R -0.774 ± 0.05, Y -0.689 ± 0.086, H -0.82 ± 0.28, L -0.97 ± 0.15
Q16: E -0.302 ± 0.069, P -0.712 ± 0.29, R -0.076 ± 0.054, T -0.249 ± 0.069, A -0.106 ± 0.046, K -0.212 ± 0.12
L28: R -0.895 ± 0.091, V -0.147 ± 0.079, A -1.05 ± 0.27, K -0.668 ± 0.095, S -0.833 ± 0.11, Y 0.069 ± 0.095, N -0.99 ± 0.16
E27: F -0.276 ± 0.049, Q -0.357 ± 0.16, M -0.373 ± 0.07, R -0.573 ± 0.078, K 0.121 ± 0.1, S -0.322 ± 0.079, N -0.947 ± 0.39
L10: A -0.895 ± 0.058, T -0.974 ± 0.23, V -1.01 ± 0.17, N -0.724 ± 0.28, H -0.868 ± 0.16, G -0.961 ± 0.16, C -0.88 ± 0.28
K44: T -0.376 ± 0.15, Q 0.007 ± 0.095, G -0.72 ± 0.1, A -0.286 ± 0.044
V39: N -1.01 ± 0.24, E -0.96 ± 0.099, H -0.998 ± 0.32, C -0.969 ± 0.37, T -0.573 ± 0.1, D -0.893 ± 0.074, S -0.916 ± 0.083, K -0.945 ± 0.19, Q -0.78 ± 0.067, G -0.731 ± 0.083, A -0.829 ± 0.088
R47: Y -0.945 ± 0.12, A -0.465 ± 0.059, D -0.654 ± 0.17, W -0.641 ± 0.14, N -0.552 ± 0.11, S -0.723 ± 0.064, K -0.591 ± 0.13, C -0.804 ± 0.13, P -0.532 ± 0.074
N45: K -0.368 ± 0.12, A -0.452 ± 0.1, M -0.355 ± 0.1, G -0.58 ± 0.073, R -0.063 ± 0.05, T -0.255 ± 0.074, Q -0.263 ± 0.052, L -0.28 ± 0.06
W13: T -0.066 ± 0.072, M 0.012 ± 0.091, L -0.139 ± 0.076, A 0.015 ± 0.06, K -0.399 ± 0.12, D -0.527 ± 0.12
P22: R -0.362 ± 0.06, N -0.232 ± 0.084, E 0.055 ± 0.048, V 0.03 ± 0.058, D -0.195 ± 0.12, H -0.717 ± 0.42
G40: I -0.247 ± 0.15, F -0.858 ± 0.13, Y -0.871 ± 0.23, R 0.008 ± 0.048, A -0.146 ± 0.063, D -0.227 ± 0.062, T -0.183 ± 0.089, S 0.006 ± 0.06, C -0.13 ± 0.085
N41: K 0.252 ± 0.093, H -0.168 ± 0.16, C -0.459 ± 0.17, Q -0.402 ± 0.12, R 0.142 ± 0.065, M -0.286 ± 0.12
S8: K 0.048 ± 0.061
P18: H -0.028 ± 0.17, C -0.032 ± 0.082, K -0.136 ± 0.095, R -0.182 ± 0.062, E -0.717 ± 0.13, F -0.672 ± 0.17
L34: F -0.823 ± 0.13, W -0.606 ± 0.097, M -0.186 ± 0.093, Y -0.778 ± 0.14, V -0.881 ± 0.11, A -0.72 ± 0.097, Q -0.634 ± 0.15
T35: V -0.842 ± 0.05, P -0.894 ± 0.15, F -0.77 ± 0.37, R -0.704 ± 0.045
R5: H -0.522 ± 0.21, M -0.16 ± 0.1, N -0.225 ± 0.15, V 0.003 ± 0.059, S 0.187 ± 0.089, E -0.098 ± 0.095, P -0.329 ± 0.13
A29: M -1.03 ± 0.19, Q -0.897 ± 0.37, G -0.468 ± 0.065, R -1.11 ± 0.19
F2: M 0.253 ± 0.089, R -0.324 ± 0.048, T -0.106 ± 0.074, N 0.149 ± 0.11, Q -0.178 ± 0.095, K 0.009 ± 0.1, P -0.258 ± 0.044, W -0.538 ± 0.1
P36: N -0.815 ± 0.34, C -0.241 ± 0.051, S -0.274 ± 0.07, L -0.087 ± 0.062, F 0.184 ± 0.075, T -0.066 ± 0.072, I -0.096 ± 0.11
D50: Q -0.276 ± 0.065, T -0.582 ± 0.12, R -1.08 ± 0.21, V -0.699 ± 0.095, E 0.189 ± 0.1
R11: E -0.047 ± 0.085, I 0.004 ± 0.075, V -0.141 ± 0.053, S -0.021 ± 0.059, P -0.514 ± 0.15, W -0.07 ± 0.063, N -0.111 ± 0.071, Y -0.408 ± 0.24, H -0.227 ± 0.13
Y14: P -0.672 ± 0.13, F -0.294 ± 0.091, Q -0.834 ± 0.17, D -1.14 ± 0.31, M -0.891 ± 0.13, G -0.833 ± 0.057, N -0.734 ± 0.16, I -0.746 ± 0.076
T32: V -0.257 ± 0.072, M -0.59 ± 0.11, G -0.903 ± 0.11, H 0.036 ± 0.29, A -0.399 ± 0.079, Y -1 ± 0.19, Q -1.23 ± 0.39, W -0.821 ± 0.11, I -0.591 ± 0.14
R7: T -0.403 ± 0.2, Y 0.033 ± 0.15, W -0.091 ± 0.12, G -0.261 ± 0.075, V -0.03 ± 0.043, F -0.419 ± 0.3, D -0.26 ± 0.18, H 0.238 ± 0.49
T6: Q -0.067 ± 0.21, F -0.504 ± 0.059, I 0.288 ± 0.088
S23: Q -0.022 ± 0.11, D 0.175 ± 0.064, N -0.249 ± 0.08, H -0.356 ± 0.059, F -0.343 ± 0.11, L -0.342 ± 0.059, P -0.341 ± 0.12, V -0.094 ± 0.064, T -0.005 ± 0.075, A 0.072 ± 0.076
Q38: R -0.802 ± 0.067, D -0.937 ± 0.38, K -0.886 ± 0.2, M -0.619 ± 0.09, P -1.13 ± 0.18, L -0.64 ± 0.052, C -0.393 ± 0.15, A -0.338 ± 0.068, V -0.418 ± 0.058, N -0.728 ± 0.24, I -0.733 ± 0.31
A31: I -0.148 ± 0.1, V -0.169 ± 0.069, Q -0.023 ± 0.077, N -0.506 ± 0.16, S -0.186 ± 0.06
K3: C 0.158 ± 0.12, T -0.134 ± 0.11, S -0.106 ± 0.1, Y -0.262 ± 0.095, R -0.275 ± 0.047, Q -0.216 ± 0.2, V -0.655 ± 0.12, N 0.165 ± 0.069, M -0.624 ± 0.2
R46: L -0.531 ± 0.058, S -0.326 ± 0.083, C -0.554 ± 0.16, A -0.306 ± 0.091, H -0.269 ± 0.14, Q -0.045 ± 0.046, D -0.67 ± 0.072
C1: V -0.402 ± 0.3
L15: R 0.145 ± 0.1, E -0.091 ± 0.16, Q 0.08 ± 0.07, W -0.551 ± 0.35, V -0.22 ± 0.24
R49: G -0.373 ± 0.051, S -0.279 ± 0.083, F -0.373 ± 0.16, M -0.247 ± 0.058, D -0.033 ± 0.11, Y -0.074 ± 0.12
K24: I -0.072 ± 0.09, M -0.246 ± 0.15, R -0.137 ± 0.047, P -0.924 ± 0.14, C -0.399 ± 0.085, A 0.11 ± 0.074, T -0.097 ± 0.092
L9: F -0.51 ± 0.22, E -0.481 ± 0.066, G -0.726 ± 0.05, C -0.694 ± 0.18, M -0.199 ± 0.11, Q -0.266 ± 0.067, W -0.632 ± 0.05, Y -0.001 ± 0.11, A -0.43 ± 0.064
Q48: P -0.799 ± 0.24, F -0.46 ± 0.18, W -0.117 ± 0.08, N -0.166 ± 0.12, E -0.267 ± 0.12, D -0.37 ± 0.061, R 0.397 ± 0.049, M -0.431 ± 0.077
D17: S -0.627 ± 0.07, E -0.204 ± 0.078, T -0.844 ± 0.061, M -0.81 ± 0.14, Q -0.814 ± 0.18, G -0.834 ± 0.067, I -0.927 ± 0.38
E12: I -0.618 ± 0.15, Y -0.09 ± 0.041, N 0.23 ± 0.12, F -0.45 ± 0.16, G -0.3 ± 0.042, C -0.84 ± 0.2, A -0.256 ± 0.075, K -0.314 ± 0.12, V -0.608 ± 0.099
N21: S 0.078 ± 0.056, Q -0.553 ± 0.34, L -0.375 ± 0.049, I -0.433 ± 0.17, D 0.322 ± 0.086, M -0.277 ± 0.067, V -0.14 ± 0.047, W -0.613 ± 0.077
Q30: N 0.114 ± 0.09, A -0.19 ± 0.059, G -0.166 ± 0.05, P -0.93 ± 0.15, L -0.139 ± 0.045, D 0.037 ± 0.084
G33: N 0.029 ± 0.12, C -0.643 ± 0.12, K -0.494 ± 0.073, I -0.902 ± 0.25, Q -0.57 ± 0.087, L -0.812 ± 0.057, F -0.774 ± 0.065
E4: W -0.684 ± 0.16, F -0.226 ± 0.31, R -0.708 ± 0.06
W42: Q -0.854 ± 0.083, S -1.06 ± 0.27, H -0.702 ± 0.34, P -1 ± 0.14, F -0.764 ± 0.3, K -0.871 ± 0.32
P20: D -0.845 ± 0.13, L -0.339 ± 0.1, S -1.05 ± 0.3, Y -0.707 ± 0.075, T -0.838 ± 0.23
Y19: K -0.095 ± 0.1, D -0.368 ± 0.17, W -0.374 ± 0.09, A -0.372 ± 0.081
K25: T 0.133 ± 0.062, N -0.344 ± 0.25, Q -0.109 ± 0.11, W -0.334 ± 0.056, E 0.008 ± 0.079, R -0.177 ± 0.063
